Laboratory results taken from publication PMC10234869.
One block for each molecule: values may come before it.

Experiments:
[1] = biological target: Signal Peptide Peptidase-like 2c, C-terminally myc-tagged (SPPL2c-myc) (murine) (UniProt A2A6C4)
[2] = biological target: Frey1 CD74-Lum (Frey1-3xFLAG with its luminal domain replaced by the first 70 aa of the luminal segment of CD74) (murine) (UniProt Q8CF31); assay: co-IP; anti-FLAG M2 and Protein G agarose from 0.5% CHAPSO lysates (1 mg in 500 µl, overnight, 4 °C) of transiently transfected HEK293T cells; four washes with CHAPSO buffer; eluates blotted; co-precipitated SPPL2c divided by the precipitated Frey1 or PLN variant and normalised to wild-type Frey1

inhibition of SPPL2c-mediated processing of HA-RAMP4-2 in HEK cells (Fig. 4H, I) [1]: 50%
Molecule: PLN PRSAG (3xFLAG-PLN with the Frey1 residues P11, R12, S16, A25 and G26 at the corresponding positions of its membrane anchor) (from UniProt P61014 1-52)

co-precipitated SPPL2c, percent of wild-type Frey1, normalised to the expression level [2]: 20%
B1: Signal Peptide Peptidase-like 2c, C-terminally myc-tagged (SPPL2c-myc) (enzyme)
chain: EYGLVRVVSKNWSKDYCVLYSSDYVNLPRDLHHAPLLSLHDGTKTPWCPDEDSFHQAQDSSPRQRPLHQTTTMVTRGNCSFYAKGWLAQDQGAQGLLIVSRARNQQCSDTISKPQDPSKPWPALTIPVAVLRYTDMLDIVSHTYGDTDVRVAMFAPLEPVTDYNMAIIFILAVGTVAAGGYWAGLMEANKLQRRQAQRGGGLGGHNQQQTVAAERSQRAWEDDDFEDAPMDFTPAMTGAVVTMSCSIMILLYFFYDCFVYVMIGIFSLGASTGLYSCLAPILCHLPLWRYQWVLPGQRVSVTWPLLLLAGLCAMVTVLWVIHRNEDHWAWLLQDTLGVAYCLFVLRRVRLPTFKNCTLFLLALLAFDVFFVFITPLFTKTGESIMVEVASGPADSSSHERLPMVLKVPRLSFSALTLCNQPFSILGFGDIVVPGFLVAYCHRFDMQVQSRQVYYMACTVAYAVGLLVTFVAMILMQMGQPALLYLVSSTLLTSLAVATCRQEFTLFWTGQGRAKIPAEPVAQPCIASAVGSKMKLEDAKDSRTTNRFEQAVDGESGDLESSTGDDMAEMVTLSEDEATSPEGHSESSEGWSDTNLDPNELPSGSPMALEAMLIPLIQPIPHPSELGHIRTQSRVHDSSLPWMGLHKRKGLKVKKSMSAQAPL
